US11267842B2, “Enzymatic modification of nucleic acids” (The Regents of the University of California, priority 2015, dated 2022)

Substrate: CN1/C(=C/c2cc[n+](CCCCCC(=O)NCCOCCOCCOCCNCc3c[nH]c4nc(N)[nH]c(=O)c34)c3ccccc23)Sc2ccccc21
Experiment: Estimation of PreQ1-TO substrate kinetics with ECY-A1 catalyzed by TGT
Assay type: biochemical, E. coli
Settings: other: estimated from initial rates by fluorescence, 10 μM ECY-A1, 100 nM TGT, 37° C.
Procedure: Estimation of PreQ1-TO substrate kinetics with ECY-A1. An estimation of PreQ1-TO substrate kinetics with ECY-A 1 was performed under similar concentrations and conditions to that found from previous kinetic analyses using radiolabeled substrates.^2 A triplicate set of 20 μL reactions was analyzed using a Tecan Saphire-II plate reader in a Greiner 384 well flat bottom plate (VWR, CAT# 89089−584). Each well was prepped with 10 μM ECY-A 1 and a variable amount (from 100 μM to 10 nM in serial ⅓ dilutions) of PreQ1-TO in TGT reaction buffer. The plate was covered and allowed to warm up to 37° C. for 10 minutes. […] Each well was then covered with 10 μL of light mineral oil (to prevent evaporation of water) and the plate was immediately subjected to a fluorescence reading for the first kinetic time point at 37° C. Each well was monitored with an excitation of 501 nm and emission of 531. […] The gain was held fixed and the integration time set to 1 second with 10 reads averaged to each data point collected. The sample was monitored for 30 minutes at 37° C. with a reading taken every 2 minutes. The data was worked up using an ECY-A1-PreQ1-TO calibration curve to convert fluorescence into concentration of product in each sample for each time point to achieve an estimation of the initial rate of each reaction in M^−1/s^−1. […] This curve was analyzed with Graph Pad Prism v. […]

B1: bacterial (E.coli) tRNA guanine transglycosylase (TGT) (Escherichia coli K-12) (protein)
chain: MKFELDTTDGRARRGRLVFDRGVVETPCFMPVGTYGTVKGMTPEEVEATGAQIILGNTFHLWLRPGQEIMKLHGDLHDFMQWKGPILTDSGGFQVFSLGDIRKITEQGVHFRNPINGDPIFLDPEKSMEIQYDLGSDIVMIFDECTPYPADWDYAKRSMEMSLRWAKRSRERFDSLGNKNALFGIIQGSVYEDLRDISVKGLVDIGFDGYAVGGLAVGEPKADMHRILEHVCPQIPADKPRYLMGVGKPEDLVEGVRRGIDMFDCVMPTRNARNGHLFVTDGVVKIRNAKYKSDTGPLDPECDCYTCRNYSRAYLHHLDRCNEILGARLNTIHNLRYYQRLMAGLRKAIEEGKLESFVTDFYQRQGREVPPLNVDHHHHHH
notes: His6 (C); made in house; host or cells: E. coli BL21
- Km: 9.8 µM
- kcat: 0.0016 s⁻¹
